Laboratory results as given in patent US20250019435A1 (ALBERT EINSTEIN COLLEGE OF MEDICINE, published 2025).

T1: SHP-2 (human, UniProt Q06124 2-593)
T1 sequence (looked up): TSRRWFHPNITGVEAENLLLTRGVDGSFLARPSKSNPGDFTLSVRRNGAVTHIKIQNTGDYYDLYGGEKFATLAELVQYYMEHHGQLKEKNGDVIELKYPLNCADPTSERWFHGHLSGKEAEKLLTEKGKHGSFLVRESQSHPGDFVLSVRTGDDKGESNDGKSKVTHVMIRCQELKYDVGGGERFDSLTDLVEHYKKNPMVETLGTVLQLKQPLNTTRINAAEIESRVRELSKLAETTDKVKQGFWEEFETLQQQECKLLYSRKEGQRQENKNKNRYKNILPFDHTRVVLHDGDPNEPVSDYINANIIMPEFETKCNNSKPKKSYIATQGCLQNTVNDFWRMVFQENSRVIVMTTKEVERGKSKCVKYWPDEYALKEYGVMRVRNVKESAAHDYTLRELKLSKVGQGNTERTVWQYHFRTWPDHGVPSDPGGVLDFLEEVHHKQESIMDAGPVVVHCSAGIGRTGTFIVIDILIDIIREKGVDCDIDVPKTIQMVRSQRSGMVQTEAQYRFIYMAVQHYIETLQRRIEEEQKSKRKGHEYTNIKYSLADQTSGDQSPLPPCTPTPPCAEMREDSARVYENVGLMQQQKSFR

T2: PVR expressed on transduced cells (PVR-YFP) (UniProt P15151 21-417)
T2 construct: whole, on cells; On NIH 3T3 or Raji cells; also called PVR/3T3; PVR-YFP/3T3; not shown: YFP ('PVR-YFP ... fusion protein')
T2 sequence (looked up): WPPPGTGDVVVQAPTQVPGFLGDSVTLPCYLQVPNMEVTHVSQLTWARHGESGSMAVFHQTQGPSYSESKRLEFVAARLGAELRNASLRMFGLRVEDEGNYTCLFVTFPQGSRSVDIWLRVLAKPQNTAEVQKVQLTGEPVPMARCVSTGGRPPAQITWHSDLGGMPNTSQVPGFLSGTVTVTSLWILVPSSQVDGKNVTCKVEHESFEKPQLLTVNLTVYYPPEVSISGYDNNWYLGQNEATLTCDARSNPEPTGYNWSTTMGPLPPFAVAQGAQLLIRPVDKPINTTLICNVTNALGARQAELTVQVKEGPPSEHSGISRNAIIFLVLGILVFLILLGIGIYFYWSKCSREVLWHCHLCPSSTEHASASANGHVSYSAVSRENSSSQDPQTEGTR


How the values were obtained:
[1] = molecular target: SHP-1 (human, UniProt P29350 1-595); assay: co-immunoprecipitation with anti-KIR2DL5 from transduced primary NK cells with or without pervanadate, immunoblot
Protocol: (§1) FIG. 12A-12E: KIR2DL5 ITIM and ITSM mediated NK cell inhibition and suppressed downstream signaling. (A) Tyrosine (Y) in ITIM and ITSM of KIR2DL5 was mutated to phenylalanine (F). The KIR2DL5⁻ primary NK cells were transduced with WT KIR2DL5 or the indicated mutants, and then examined for protein expression with F8B30 (open) or mIgG1 (shaded). NC, negative control. Data are representative of 2 independent experiments. (B and C) Transduced primary NK cells were treated with (+) or without (−) pervanadate (VO₄) for 5 minutes. Cell lysates were immunoprecipitated with anti-KIR2DL5 antibodies. Phospho-tyrosine (4G10), SHP-1, SHP-2, and total KIR2DL5 were detected by immunoblots (B). Quantification of p-Tyr, SHP-1, and SHP-2 association with WT or mutant KIR2DL5 in VO₄-treated NK cells (C). WCL, whole-cell lysates. (D) Representative imaging of cell conjugates acquired upon the indicated transduced primary NK and PVR/Raji cell contact followed by staining with anti-KIR2DL5 mAb and DAPI. Scale bars: […]. (E) Lysis of scramble control or PVR^KO A427 (top) and Jurkat (bottom) by WT or mutant KIR2DL5-transduced primary NK cells at the indicated E/T ratios. Data are mean for duplicate measurements and representative of 3 independent experiments with 3 different donors. In A, and B, data are representative of 3 independent experiments. *P<0.05, **P<0.01, ***P<0.001, ****P<0.0001, by 1-way ANOVA (C), or paired Student's t test (D).
(§2) Coimmunoprecipitation and immunoblotting. NK92 cells or primary NK cells pretreated with or without 1 mM pervanadate (New England BioLabs) were lysed in Pierce immunoprecipitation lysis buffer supplemented with protease and phosphatase inhibitor cocktail (Thermo Fisher Scientific). Proteins from whole-cell lysis were further incubated with anti-KIR2DL5 antibodies and Dynabeads protein G (Thermo Fisher Scientific) for further immunoprecipitation. […]

[2] = molecular target: T1, SHP-2; assay: as above
Protocol: as §1, §2

[3] = molecular target: T2, PVR expressed on transduced cells …; assay: confocal imaging of conjugates of transduced primary NK cells with PVR-YFP/Raji cells
Protocol: as §1, with “The” for “FIG. 12A-12E: KIR2DL5 ITIM and ITSM mediated NK cell inhibition and suppressed downstream signaling. (A) Tyrosine (Y) in ITIM and ITSM of KIR2DL5 was mutated to phenylalanine (F). The”
NK-Raji conjugation assay. […] Cell mixtures were then loaded onto poly-L-lysine-precoated slides and fixed with 4% formaldehyde at RT for 15 minutes. After blocking with 5% normal goat serum at RT for 1 hour, cells were stained with 20 µg/mL anti-KIR2DL5 antibodies (a mixture of 8 homemade clones) at 4° C. overnight and then with goat anti-mIgG (H+L) Alexa Flour 647 (Invitrogen) at RT for 2 hours. The cells were permeabilized by 0.1% Triton X-100 at RT for 15 minutes and stained with Alexa Flour Plus 405 Phalloidin (Life Technologies) for 1 hour at RT. The slides were then mounted by Gold Antifade Mountant without DAPI (Life Technologies). The mean pixel intensity of synapse and non-synapse was respectively measured and statistically analyzed. Images were acquired by Leica SP8 confocal microscope and processed by ImageJ (NIH).

[4] = molecular target: T2, PVR expressed on transduced cells …; assay: flow cytometry, PVR/3T3 cells preincubated with DNAM-1-His, then KIR2DL5-Ig

Sequence of SHP-1 (P29350 whole entry): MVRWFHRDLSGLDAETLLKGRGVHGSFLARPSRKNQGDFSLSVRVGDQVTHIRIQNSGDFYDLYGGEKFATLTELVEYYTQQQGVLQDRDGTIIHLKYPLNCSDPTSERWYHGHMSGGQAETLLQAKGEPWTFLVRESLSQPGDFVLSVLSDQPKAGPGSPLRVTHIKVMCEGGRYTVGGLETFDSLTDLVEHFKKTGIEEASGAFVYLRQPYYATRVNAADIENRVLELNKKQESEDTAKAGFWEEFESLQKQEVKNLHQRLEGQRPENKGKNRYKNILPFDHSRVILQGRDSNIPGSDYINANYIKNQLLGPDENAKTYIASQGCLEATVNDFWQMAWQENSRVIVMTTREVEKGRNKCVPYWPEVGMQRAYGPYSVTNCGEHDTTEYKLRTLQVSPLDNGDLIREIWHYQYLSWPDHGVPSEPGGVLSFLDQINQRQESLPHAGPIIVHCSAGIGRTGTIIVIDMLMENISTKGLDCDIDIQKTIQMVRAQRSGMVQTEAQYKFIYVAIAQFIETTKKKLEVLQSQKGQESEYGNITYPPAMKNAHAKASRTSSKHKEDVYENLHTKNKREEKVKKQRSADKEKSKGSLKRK

binding result [1]	binding result [2]	binding result [3]	binding result [4]	Binder
no binding	no binding	binds		Y298F/Y328F (receptor, also called KIR2DL5 Y298F/Y328F (ITIM and ITSM mutant) on transduced primary NK cells) receptor chain: HEGGQDKPLLSAWPSAVVPRGGHVTLLCRSRLGFTIFSLYKEDGVPVPELYNKIFWKSILMGPVTPAHAGTYRCRGSHPRSPIEWSAPSNPLVIVVTGLFGKPSLSAQPGPTVRTGENVTLSCSSRSSFDMYHLSREGRAHEPRLPAVPSVNGTFQADFPLGPATHGGTYTCFGSLHDSPYEWSDPSDPLLVSVTGNSSSSSSSPTEPSSKTGIRRHLHILIGTSVAIILFIILFFFLLHCCCSNKKNAAVMDQEPAGDRTVNREDSDDQDPQEVTFAQLDHCVFTQTKITSPSQRPKTPPTDTTMFMELPNAKPRSLSPAHKHHSQALRGSSRETTALSQNRVASSHVPAAGI
			binds	recombinant human DNAM-1-His tag protein (receptor, UniProt Q15762 19-247, looked up, Bought; also called CD226-His; not shown: His tag) EEVLWHTSVPFAENMSLECVYPSMGILTQVEWFKIGTQQDSIAIFSPTHGMVIRKPYAERVYFLNSTMASNNMTLFFRNASEDDVGYYSCSLYTYPQGTWQKVIQVVQSDSFEAAVPSNSHIVSEPGKNVTLTCQPQMTWPVQAVRWEKIQPRQIDLLTYCNLVHGRNFTSKFPRQIVSNCSHGRWSVIVIPDVTVSDSGLYRCYLQASAGENETFVMRLTVAEGKTDN
